{"source": "the nanobody polyreactivity screen of Harvey et al. (2022)", "test": "yeast display, Sf9 membrane polyspecificity reagent, FACS + sequencing; frameworks hold sequencing errors", "summary_of_the_method": "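Nanobodies from a synthetic yeast display library (Saccharomyces cerevisiae BJ5465), induced 36–48 hours with galactose, were stained 1 hour at 4 °C with 10% biotinylated, detergent-solubilized Sf9 membrane reagent, enriched on streptavidin microbeads, then FACS-sorted. Anti-HA (expression) and streptavidin (reagent binding) fluorescence set low and high (top ~1%) gates. Polyreactivity labels come from the gate of origin. Genes were colony-PCR amplified, MiSeq 2 × 250 sequenced and filtered by CDR length.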", "data": [{"sequence": "QVQLVESGGGLVQAGGSLRLSCAASGSIFYRNDMGWYRQAPGKERELVAAITWSGVNTYYADSVKGRFTISRDNAKNTVYLQMNSLKPEDTAVYYCAVPSRYWLNRGFDYWGQGTQVTVSS", "values": [{"measurement": "polyreactivity (PSR sort gate)", "value": "low polyreactivity"}]}, {"sequence": "QVQLVESGGGLVQAGGSLRLSCAASGSIFYRNVMGWYRQAPGKERELVASINFSGGSTYYADCVKGRFTISRDNAKNTVYLQMNSLKPEDTAVYYCAARTVHIYTRMYYWGQGTQVTVSS", "values": [{"measurement": "polyreactivity (PSR sort gate)", "value": "high polyreactivity"}]}, {"sequence": "QVQLVESGGGLVQAGGSLRLSCAASGSIFYRNVMGWYRQAPGKERELVATISRGGTSNYADSVKGRFTISRDNAKNTVYLQMNSLKPEDTAVYYCAAPIGDVYVGKGYDSWGQGTQVTVSS", "values": [{"measurement": "polyreactivity (PSR sort gate)", "value": "low polyreactivity"}]}, {"sequence": "QVQLVESGGGLVQAGGSLRLSCAASGSIFYRYAIGWYRHPPGKERELVAAITRGGTTYYADSVKGRFTISRDNAKNTVYLQMNSLKPEDSAVYYCAARLRYTTVIYYYWGQGTQVTVSS", "values": [{"measurement": "polyreactivity (PSR sort gate)", "value": "high polyreactivity"}]}, {"sequence": "QVQLVESGGGLVQAGGSLRLSCAASGSIFYRYAMGWNRQAPGKERELVATITQSGVSTYYADSEKGRFTISRDNAKNTVYLQMNSLKPEDTAVYYCAASYYYTIGPYFRKFDWGQGTQVTVSS", "values": [{"measurement": "polyreactivity (PSR sort gate)", "value": "low polyreactivity"}]}, {"sequence": "QVQLVESGGGLVQAGGSLRLSCAASGSIFYRYAMGWSRQAPGKERELVAAISSGSSTHYADSVKGRFTMSRDNAKNTVYLQMNSLKPEDTAVYYCAARYRAYTSTRRFDYWGQGTQVTVSS", "values": [{"measurement": "polyreactivity (PSR sort gate)", "value": "high polyreactivity"}]}, {"sequence": "QVQLVESGGGLVQAGGSLRLSCAASGSIFYRYAMGWYRQAPGKERELVAAIRWSGGSTYYADSVKGRFTISRDNAKNTVYLQMNSQKPEDTAVYYCATEVSYGGYWSWYGYWGQGTQVTVSS", "values": [{"measurement": "polyreactivity (PSR sort gate)", "value": "low polyreactivity"}]}, {"sequence": "QVQLVESGGGLVQAGGSLRLSCAASGSIFYRYAMGWYRQAPGKERELVAGISWTGGTYYADSVKGRFTISRDNAKNTVYLQMNSLKPEDTAVYYCAATIWIAYRGWYSDYNYWGQGTQVTVSS", "values": [{"measurement": "polyreactivity (PSR sort gate)", "value": "low polyreactivity"}]}, {"sequence": "QVQLVESGGGLVQAGGSLRLSCAASGSIFYRYAMGWYRQAPGKEWELVAAISYSGGSTYYADSVKGRFPISRDNAKNTVYVQMNSLKPEDTAVNYCATDYPPPISDYSRYYGYGYWGQGTQVTVSS", "values": [{"measurement": "polyreactivity (PSR sort gate)", "value": "low polyreactivity"}]}, {"sequence": "QVQLVESGGGLVQAGGSLRLSCAASGSIFYSNAMGWYRQAPGKEREFVAAISAGGGSTYYADSVKGRFTISRDNAKNTVYLQMNSLKPEDTAVYYCAAQPYKIIYPYDYWGQGTQVTVSS", "values": [{"measurement": "polyreactivity (PSR sort gate)", "value": "low polyreactivity"}]}, {"sequence": "QVQLVESGGGLVQAGGSLRLSCAASGSIFYSNAMGWYRQAPGKERELVAAIRTSAGSTYYADSVKGRFTISRDYAKNTVYLQMTSLKPEDTAVYYCAAVTTYYYYDVTDYAYEYYYWGQGTQVTVSS", "values": [{"measurement": "polyreactivity (PSR sort gate)", "value": "low polyreactivity"}]}, {"sequence": "QVQLVESGGGLVQAGGSLRLSCAASGSIFYSNAMGWYRQAPGKERELVAAISDGGTSTYYADSVKGRFTISRDNAKNTVYFQMNSLKPEDTAVYYCAAESTLQDWNWYKYYYWGQGTQVTVSS", "values": [{"measurement": "polyreactivity (PSR sort gate)", "value": "low polyreactivity"}]}, {"sequence": "QVQLVESGGGLVQAGGSLRLSCAASGSIFYSNAMGWYRQAPGKERELVAAISDGGTSTYYADSVKGRFTISRDNAKNTVYLQMNSLKPEDTAVYYCAAESTLQDWNWYKYYYWGQGTQVTVSS", "values": [{"measurement": "polyreactivity (PSR sort gate)", "value": "low polyreactivity"}]}, {"sequence": "QVQLVESGGGLVQAGGSLRLSCAASGSIFYSNVMGWYRQAPGKERELVAAIRYSGVGTYYADSVKGRFTISRDNAKNTVYLLMNSLKPEDTAVYYCNAVTKVGYLRRRDYWGQGTKVTVSS", "values": [{"measurement": "polyreactivity (PSR sort gate)", "value": "low polyreactivity"}]}, {"sequence": "QVQLVESGGGLVQAGGSLRLSCAASGSIFYSYAMGWYRQAPGKDRELVARITSSTGRTYYADSVKGRFTISRDNAKNTVYLQMNSLKPEDTAVYYCAARSASRSMDYWGQGTQVTVSS", "values": [{"measurement": "polyreactivity (PSR sort gate)", "value": "high polyreactivity"}]}, {"sequence": "QVQLVESGGGLVQAGGSLRLSCAASGSIFYSYAMGWYRQAPGKERELVAAISWDASTYYADSVKGRFTISRDNAKNTVYLQMNSLKPEDTAVYFCNADIPYYFVYDAYDYWGQGTQVTVSS", "values": [{"measurement": "polyreactivity (PSR sort gate)", "value": "low polyreactivity"}]}, {"sequence": "QVQLVESGGGLVQAGGSLRLSCAASGSIFYSYAMGWYRQAPGKERELVAAISYSSGSTYYADSVKGRFTISRDNAKNTVYLQMNSLKPEDTAVYDCAAEGNGWQVDVTEVGEYDSWGQGTQVTVSS", "values": [{"measurement": "polyreactivity (PSR sort gate)", "value": "high polyreactivity"}]}]}
